Each block holds one molecule with its values, some of them ahead of it.
Key:
[1] = molecular target: T1, Sac1 (phosphatase domain of yeast Sac1, residues 1-511) (Saccharomyces cerevisiae, UniProt P32368); experiment: malachite green phosphate release, PI; format: biochemical; conditions: fixed PI(4)P, pH 6.8, room temperature; allosteric activator
T1 sequence (P32368 1-511): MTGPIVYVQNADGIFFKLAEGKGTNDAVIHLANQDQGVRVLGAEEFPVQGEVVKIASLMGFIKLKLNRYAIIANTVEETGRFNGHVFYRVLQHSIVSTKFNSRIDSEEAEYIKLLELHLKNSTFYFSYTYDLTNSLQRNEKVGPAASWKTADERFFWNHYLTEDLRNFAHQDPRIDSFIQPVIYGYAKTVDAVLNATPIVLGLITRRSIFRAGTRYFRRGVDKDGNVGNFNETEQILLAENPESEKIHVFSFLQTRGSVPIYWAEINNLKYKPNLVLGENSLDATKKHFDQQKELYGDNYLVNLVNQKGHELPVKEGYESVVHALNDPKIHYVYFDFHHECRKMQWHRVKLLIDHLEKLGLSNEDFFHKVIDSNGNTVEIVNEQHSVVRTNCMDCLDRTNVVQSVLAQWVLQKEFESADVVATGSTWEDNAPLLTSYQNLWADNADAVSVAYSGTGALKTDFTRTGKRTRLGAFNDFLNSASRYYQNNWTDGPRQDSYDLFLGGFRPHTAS

[2] = molecular target: yeast Sac1 phosphatase domain (amino acids 1-511) (yeast) (UniProt P32368); experiment: AUC
purified protein = substrate: CCCCCCCC(=O)OC[C@H](COP(=O)(O)O[C@H]1[C@H](O)[C@@H](O)[C@H](OP(=O)(O)O)[C@@H](O)[C@H]1O)OC(=O)CCCCCCC; experiment: purified protein; conditions: no activator; sigmoidal, Hill coefficient 3.6 ± 0.3; buffer as for wild type

Molecule: CCCCCCCC(=O)OC[C@H](COP(=O)(O)OC[C@H](N)C(=O)O)OC(=O)CCCCCCC [diC8 PS]
activation [1]: Sac1 is strongly activated by phosphatidylserine (PS)

percent of the protein in the dimeric form [2]: 20%
stoichiometry N [2]: 2
Molecule: yeast Sac1 phosphatase domain (amino acids 1-511) (from UniProt P32368 1-511) (domain or fragment)

B1: Sac1 (phosphatase domain of yeast Sac1, residues 1-511) (Saccharomyces cerevisiae S288C; R207Q) (protein)
chain: MTGPIVYVQNADGIFFKLAEGKGTNDAVIHLANQDQGVRVLGAEEFPVQGEVVKIASLMGFIKLKLNRYAIIANTVEETGRFNGHVFYRVLQHSIVSTKFNSRIDSEEAEYIKLLELHLKNSTFYFSYTYDLTNSLQRNEKVGPAASWKTADERFFWNHYLTEDLRNFAHQDPRIDSFIQPVIYGYAKTVDAVLNATPIVLGLITRQSIFRAGTRYFRRGVDKDGNVGNFNETEQILLAENPESEKIHVFSFLQTRGSVPIYWAEINNLKYKPNLVLGENSLDATKKHFDQQKELYGDNYLVNLVNQKGHELPVKEGYESVVHALNDPKIHYVYFDFHHECRKMQWHRVKLLIDHLEKLGLSNEDFFHKVIDSNGNTVEIVNEQHSVVRTNCMDCLDRTNVVQSVLAQWVLQKEFESADVVATGSTWEDNAPLLTSYQNLWADNADAVSVAYSGTGALKTDFTRTGKRTRLGAFNDFLNSASRYYQNNWTDGPRQDSYDLFLGGFRPHTAS
K0.5 (purified protein): 46 ± 5 µM

Source: PMC3329130 (Biochemistry, 2012)
